Assays:
[1] = molecular target: T1, human RAGE-Fc fusion protein (human, UniProt Q15109 23-344); test: antibody competition ELISA on hRAGE-Fc; competitor biotinylated XT-M4; sheet note: N52D (labeled N71D) is glycosylation mutant in CDR2 of HC
T1 construct: also called hRAGE-Fc; huRAGE-Fc; not shown: Fc domain of human IgG
Description: (§1) ELISA plates were coated overnight with 1 ug/ml human RAGE-Fc. […] Briefly, plates were coated overnight with 1 ug/ml human RAGE-Fc.

[2] = molecular target: T2, soluble human streptavidin-tagged RAGE (human, UniProt Q15109 23-344); test: BIACORE capture, hRAGE-SA over captured antibody, 1:1 Langmuir global fit, FC3
T2 construct: also called hRAGE-SA; human RAGE-strep
Description: (§2) The assays were performed by coating anti-human Fc antibodies onto a CM5 BIA chip with 5000 RU (pH 5.0, 7 min.) in flow cells 1-4. Each antibody was captured by flowing at 2.0 μg/ml over the anti-Fc antibodies in flow cells 2-4 (flow cell 1 was used as a reference).

[3] = molecular target: T3, murine RAGE-strep tag fusion protein (mouse, UniProt Q62151 23-343); test: BIACORE capture, SA-Mu RAGE over captured antibody, 1:1 Langmuir global fit, row Average
T3 construct: also called mRAGE-strep; mRAGE-SA
T3 chain: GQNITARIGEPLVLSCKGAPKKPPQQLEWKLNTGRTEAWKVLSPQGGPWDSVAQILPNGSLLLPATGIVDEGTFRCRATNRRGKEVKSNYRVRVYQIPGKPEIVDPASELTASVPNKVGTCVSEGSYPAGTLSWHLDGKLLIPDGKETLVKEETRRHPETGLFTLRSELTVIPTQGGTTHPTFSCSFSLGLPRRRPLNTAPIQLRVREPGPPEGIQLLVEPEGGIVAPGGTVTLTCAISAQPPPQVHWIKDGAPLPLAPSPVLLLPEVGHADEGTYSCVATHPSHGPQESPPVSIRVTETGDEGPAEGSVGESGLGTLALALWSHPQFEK
Description: as §2

[4] = molecular target: T2, soluble human streptavidin-tagged RAGE; test: BIACORE capture, hRAGE-SA over captured antibody, 1:1 Langmuir global fit, FC4
Description: as §2

[5] = molecular target: T3, murine RAGE-strep tag fusion protein; test: BIACORE capture, SA-Mu RAGE over captured antibody, 1:1 Langmuir global fit, FC4
Description: as §2

[6] = molecular target: T3, murine RAGE-strep tag fusion protein; test: BIACORE capture, SA-Mu RAGE over captured antibody, 1:1 Langmuir global fit, FC2
Description: as §2

[7] = molecular target: T2, soluble human streptavidin-tagged RAGE; test: BIACORE capture, hRAGE-SA over captured antibody, steady state affinity, FC4
Description: as §2

[8] = molecular target: T2, soluble human streptavidin-tagged RAGE; test: BIACORE capture, hRAGE-SA over captured antibody, steady state affinity, row Average
Description: as §2

[9] = molecular target: T2, soluble human streptavidin-tagged RAGE; test: BIACORE capture, hRAGE-SA over captured antibody, 1:1 Langmuir global fit, row Average
Description: as §2

[10] = molecular target: T2, soluble human streptavidin-tagged RAGE; test: BIACORE capture, hRAGE-SA over captured antibody, steady state affinity, FC2 (cell circled on the sheet)
Description: as §2

[11] = molecular target: T2, soluble human streptavidin-tagged RAGE; test: BIACORE capture, hRAGE-SA over captured antibody, steady state affinity, FC3
Description: as §2

[12] = molecular target: T2, soluble human streptavidin-tagged RAGE; test: BIACORE capture, hRAGE-SA over captured antibody, 1:1 Langmuir global fit, FC2
Description: as §2

[13] = molecular target: T3, murine RAGE-strep tag fusion protein; test: BIACORE capture, SA-Mu RAGE over captured antibody, 1:1 Langmuir global fit, FC3
Description: as §2

[14] = molecular target: T1, human RAGE-Fc fusion protein; test: competition ELISA on coated hRAGE-Fc; competitor 12.5 ng/ml biotinylated rat XT-M4; lower end of the printed range 0.3-0.4; second listing of this pair (r31, beside r26: 0.95)
Description: as §1

[15] = molecular target: T1, human RAGE-Fc fusion protein; test: competition ELISA on coated hRAGE-Fc; competitor 12.5 ng/ml biotinylated rat XT-M4
Description: as §1

[16] = molecular target: T1, human RAGE-Fc fusion protein; test: competition ELISA on coated hRAGE-Fc; competitor 12.5 ng/ml biotinylated rat XT-M4; upper end of the printed range 0.3-0.4; second listing of this pair (r31, beside r26: 0.95)
Description: as §1

[17] = molecular target: T1, human RAGE-Fc fusion protein; test: ligand competition ELISA: HMGB1 coated, hRAGE-Fc pre-mixed with mAb, anti-huIgG-HRP; blocked ligand HMGB1
Description: Wells were washed and blocked as described above and exposed to 100 μl of pre-incubated mixtures of RAGE-Fc or TrkB-Fc (a non-specific Fc control), at 0.1 μg/ml, plus various forms of the indicated antibody preparation (dilutions of immune sera, hybridoma supernatants or purified antibodies) for 1 hour at room temperature.

[18] = molecular target: T4, human RAGE V-region-Fc fusion protein (human, UniProt Q15109 23-118); test: direct binding ELISA, coated hRAGE V-region-Fc
T4 construct: also called hRAGE V-domain-Fc; hRAGE-V-Fc (CM); not shown: Fc domain of human IgG
Description: (§3) Antibodies were purified from hybridoma supernatants using standard procedures. Purified antibodies were evaluated for binding to soluble forms of RAGE with the use of ELISA. […] After washing and blocking with PBS containing 1% BSA and 0.05% Tween-20, 100 ul of sample (samples were in several forms: diluted immune serum, hybridoma supernatants, or purified antibodies, as indicated) was added and incubated for 1 hour at room temperature. The plates were washed with PBS, pH 7.2 and bound anti-RAGE antibodies were detected with the use of peroxidase-conjugated goat, anti-mouse IgG (H+L) (IgG) (Pierce, Rockford, Ill.) followed by incubation with the substrate TMB (BioFX Laboratories Owings Mills, Md. Laboratories). Absorbance values were determined at 450 nm in a spectrophotometer. The concentrations of monoclonal antibodies were determined with the use of peroxidase-labeled goat, anti-mouse IgG (Fcγ) (Pierce Rockford, Ill.) and a standard curve was generated by a purified, isotype-matched mouse IgG.

[19] = molecular target: T1, human RAGE-Fc fusion protein; test: BIACORE direct binding, hRAGE-Fc immobilized
Description: The binding of selected murine and rat anti-RAGE antibodies to human and murine RAGE and to the V domains of human and murine RAGE was analyzed by BIACORE® direct binding assay. […] Solution of the anti-RAGE antibodies at two concentrations, 50 and 100 nm, were run over the immobilized RAGE-Fc proteins in duplicate. BIACORE™ technology utilizes changes in the refractive index at the surface layer upon binding of the anti-RAGE antibodies to the immobilized RAGE antigen. Binding is detected by surface plasmon resonance (SPR) of laser light refracting from the surface.
The kinetic rate constants (kₐ and kd) and association and dissociation constants (Kₐ and Kd) for the binding of murine and rat anti-RAGE antibodies to human and murine RAGE were determined by BIACORE™ direct binding assay. Analysis of the signal kinetics data for on-rate and off-rate allows the discrimination between non-specific and specific interactions.

[20] = molecular target: T1, human RAGE-Fc fusion protein; test: direct binding ELISA, coated hRAGE-Fc
Description: as §3

[21] = molecular target: T2, soluble human streptavidin-tagged RAGE; test: BIACORE capture assay, antibody on CM5 chip, hRAGE-SA 0-100 nM in solution
Description: The assays were performed by coating antibodies onto a CM5 BIA chip with 5000-7000 RU.

B1: XT-M4 with N52D in the heavy chain variable region (antibody, name in Kabat numbering, V domains shown)
VH: EVQLVESGGGLVQPGRSLKLSCVVSGFTFNNYWMTWIRQTPGKGLEWVASIDNSGDNTYYPDSVKDRFTISRDNAKSTLYLQMNSLRSEDTATYYCTRGGDITTGFDYWGQGVMVTVSS
VL: DIQMTQSPSSMSVSLGDTITITCRASQDVGIYVNWFQQKPGKSPRRMIYRATNLADGVPSRFSGSRSGSIYSLTISSLESEDVADYHCLEFDEHPLTFGSGTKVEIK
notes: Removes the glycosylation site in CDR2; also called XT-M4 N52D
IC50 (read off the curve) [1]: ~0.1 µg/mL

B2: XT-M4-V10 (antibody, V domains shown)
VH: EVQLVESGGGLVQPGGSLRLSCAASGFTFNNYWMTWVRQAPGKGLEWVASIDNSGDNTYYPDSVKDRFTISRDNAKNSLYLQMNSLRAEDTAVYYCARGGDITTGFDYWGQGTLVTVSS
VL: DIQMTQSPSSLSASVGDRVTITCRASQDVGIYVNWFQQKPGKAPKRLIYRATNLADGVPSRFSGSGSGTDFTLTISSLQPEDFATYYCLEFDEHPLTFGGGTKVEIK
Kd [2]: 18.2 nM
koff [2]: 0.0569 s⁻¹
kon [2]: 3.13e+06 M⁻¹ s⁻¹
Kd [3]: 3 nM
koff [3]: 0.0077 s⁻¹
kon [3]: 2.6e+06 M⁻¹ s⁻¹
Kd [4]: 20.3 nM
koff [4]: 0.0704 s⁻¹
kon [4]: 3.47e+06 M⁻¹ s⁻¹
Kd [5]: 3 nM
koff [5]: 0.0078 s⁻¹
kon [5]: 2.6e+06 M⁻¹ s⁻¹
Kd [6]: 3 nM
koff [6]: 0.0078 s⁻¹
kon [6]: 2.6e+06 M⁻¹ s⁻¹
Kd [7]: 26 nM
Kd [8]: 25 nM
Kd [9]: 23.4 nM
koff [9]: 0.0457 s⁻¹
kon [9]: 2.3e+06 M⁻¹ s⁻¹
Kd [10]: 25 nM
Kd [11]: 24 nM
Kd [12]: 31.8 nM
koff [12]: 0.00972 s⁻¹
kon [12]: 306000 M⁻¹ s⁻¹
Kd [13]: 2.9 nM
koff [13]: 0.0076 s⁻¹
kon [13]: 2.6e+06 M⁻¹ s⁻¹

B3: humanized XT-M4 hVH-V2.0 / hVL-V2.10 (antibody, human IgG1, V domains shown)
VH: EVQLVESGGGLVQPGGSLRLSCAASGFTFNNYWMTWVRQAPGKGLEWVASIDNSGDNTYYPDSVKDRFTISRDNAKNSLYLQMNSLRAEDTAVYYCARGGDITTGFDYWGQGTLVTVSS
VL: DIQMTQSPSSLSASVGDRVTITCRASQDVGIYVNWFQQKPGKAPKRLIYRATNLADGVPSRFSGSGSGTDFTLTISSLQPEDFATYYCLEFDEHPLTFGGGTKVEIK
IC50 [14]: 0.3 to 0.4 µg/mL
IC50 [15]: 0.95 µg/mL
IC50 [16]: 0.3 to 0.4 µg/mL

B4: XT-H2 (antibody, mouse IgG1, V domains shown)
VH: QVQLQQSGAELAKPGASVKMSCKASGYTFTTYWMHWVKQRPGQGLYWIGYINPSTGYTEYNQKFKDKATLTADKSSSTAYMQLSSLTSEDSAVYYCARWAGYTIDYWGQGTSVTVSS
VL: DVVLTQTPLSLPVNIGDQASISCKSTKSLLNSDGFTYLDWYLQKPGQSPQLLIYLVSDRFSGVPDRFSGSGSGTDFTLTISRVEAEDLGVYYCFQSNSLPLTFGSGTKLEIK
notes: also called 1hRAGEP3/16; murine anti-huRAGE monoclonal antibody XT-H2
IC50 (read off the curve) [17]: ~0.2 µg/mL
EC50 [18]: 0.1 nM
Ka [19]: 1.14e+10 M⁻¹
Kd [19]: 0.0876 nM
koff [19]: 0.000504 s⁻¹
kon [19]: 5.76e+06 M⁻¹ s⁻¹
EC50 [20]: 0.09 nM
Ka [21]: 9.48e+08 M⁻¹
Kd [21]: 1.06 nM
koff [21]: 0.00116 s⁻¹
kon [21]: 1.1e+06 M⁻¹ s⁻¹

Reference: patent US20070286858A1 (Pfizer, published 2007)
